From publication PMC12046042 (2025)

Key:
Assay in all cases: SPR
[1] = target: FcγRIIIa-158F
[2] = target: FcγRIIa-131R
[3] = target: FcγRIIa-131H
[4] = target: FcγRIIIa-158V
[5] = target: FcγRIIb
[6] = target: T1, FcγRI (CD64) extracellular domain (UniProt P12314 16-292)
T1 chain: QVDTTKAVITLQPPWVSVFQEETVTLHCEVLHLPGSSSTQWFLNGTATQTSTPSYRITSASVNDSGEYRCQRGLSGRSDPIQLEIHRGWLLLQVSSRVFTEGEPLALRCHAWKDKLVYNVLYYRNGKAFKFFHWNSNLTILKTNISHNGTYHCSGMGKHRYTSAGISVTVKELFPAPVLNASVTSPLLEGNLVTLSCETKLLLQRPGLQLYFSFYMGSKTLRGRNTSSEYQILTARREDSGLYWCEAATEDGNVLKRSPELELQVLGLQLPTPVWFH

Kd [1]: > 10000 nM
Kd [2]: 1800 nM
Kd [3]: 4400 nM
Kd [4]: 5000 nM
Kd [5]: 1900 nM
Kd [6]: 0.474 nM
B1: LY3454738 IgG4 S228P (ucenprubart) (antibody)
chain 1: QVQLVQSGAEVKKPGASVKVSCKASGFSFSSGYYMAWVRQAPGQGLEWMGLIGVGSGSLWYAQKFQGRVTMTRDTSTSTVYMELSSLRSEDTAVYYCARHFALSDPFNLWGQGTLVTVSS
chain 2: EIVLTQSPDFQSVTPKEKVTITCQASESIDSYLLWYQQKPDQSPKLLIKQASTLASGVPSRFSGSGSGTDFTLTINSLEAEDAATYYCQNYYDISSNDFGGGTKVEIK
